Results published in the nanobody polyreactivity screen of Harvey et al. (2022).

test: yeast display, Sf9 membrane polyspecificity reagent, FACS + sequencing; frameworks hold sequencing errors
Outline: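 A nanobody's polyreactivity label depends on the gate it was sorted from. Yeast display cells were stained with 10% biotinylated, detergent-solubilized Sf9 membrane reagent for 1 hour at 4 °C, enriched on streptavidin microbeads and sorted by FACS. The low and high (top ~1%) gates were set on anti-HA fluorescence for expression and streptavidin fluorescence for reagent binding.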

Row | Sequence | polyreactivity (PSR sort gate)
1 | QVQHVESGGGLVQAGGSLRLSCAASGRTFSYYTMGWYRQAPGKERELVARISNRGTNTYYADSVKGRFTISRDNAKYTVYLQMNSLKPEDYAVYYCAKYYYTSIVGYDSWGQGTQVTVSS | low polyreactivity
2 | QVQHVESGGGLVQAGGSLRLSCAASGRTFVTYAMGWYRQAPGKERELVAAISKRGSRTYYADSVKGRFTISRDNAKNTVYLQMNSLKPEDTAVYYCNADPYRTSYDYWGQGTQVTVSS | high polyreactivity
3 | QVQHVESGGGLVQAGGSLRLSCAASGRTFWINAMGWYRQARGKERELVAAITRGGRTYADSVKGRFTISRDNAKNSVYLQMNSLKPEDTAVYFCAADSYRLSGHHGYDFWGQGTQLTVSS | high polyreactivity
4 | QVQHVESGGGLVQAGGSLRLSCAASGRTFYSYAMGWYRQAPGKERELVAAINSGGTTYYADSVKGRFTISRDNAKNTVYLEINSLKPEDTAVYYCAAVSYLFLYQGYPIAYPMYYWGQGTQVTVSS | low polyreactivity
5 | QVQHVESGGGLVQAGGSLRLSCAASGRTFYSYAMGWYRQAPGKERELVAAISGRGGRTYYADSVKGRFTISRDNAKNTVYLQMNSLKPEDSAVYFCAKGGYAIRYYGFDYWGQGTQVTVSS | high polyreactivity
6 | QVQHVESGGGLVQAGGSLRLSCAASGRTLYRYAMGWSRQAPRKERELVAAIRSGGRTNYADSVKGRFTISRDNAKNTVYLQMNSLKPEDTAVYYCAARTLRYPSTFEYWGQGTQVTVSS | high polyreactivity
7 | QVQHVESGGGLVQAGGSLRLSCAASGSIFGRYAMGWYRPAPGKERELVAAITRSGVSTYYADSVTGRFTSARDNAKNTVDLQMNSLKPEDTAVYYCNAYYPIRSSPYGYYYWGQGTQVTVSS | high polyreactivity
8 | QVQHVESGGGLVQAGGSLRLSCAASGSIFLIYAMGWYRPAPGKERELVAAITGGGTTNYADSVKGRFTISRDNAKHTVYFQMNSLKPEDTAVYYCNTLYLVYLYWTSPTPSDLFDYWGQGTQVTVSS | low polyreactivity
9 | QVQHVESGGGLVQAGGSLRLSCAASGSIFNYYAMGWYRQAPGKERELVAAISKTGGSTYYADSVKGRFTISRDNAKNTVYLQMNSLKPEDTAVYYCNAVYASVSPTPYGYWGQGTQVTVSS | high polyreactivity
10 | QVQHVESGGGLVQAGGSLRLSCAASGSIFSFNAMGWYRQAPGKERELVASISRNGGSTYYADSVKGRFTISRDNAKNTVYLQMNSLKPEDTAVYYCAVKVRNRRYGYWGQGTQVTVSS | high polyreactivity
11 | QVQHVESGGGLVQAGGSLRLSCAASGSIFSIYAMGWYRQAPGKEREFVASITVTDGSTYYADSVKGRFTISRDNAKNTVYLQMNSLKPEDTAVYYCFAVDWYGSGSSYRGSVTYWGQGTQVTVSS | low polyreactivity
12 | QVQHVESGGGLVQAGGSLRLSCAASGSIFTSYAMGWSSQAPGKERELVAAITSTGGSTYYADSVKGRFTISRDNAKNTVYLQMNSLKPEDTAVYYCNADGGTPYDYWGQGTQVTVSS | low polyreactivity
13 | QVQHVESGGGLVQAGGSLRLSCAASGSIFYQNAMGWYRQAPGKERELVAAISSAGSTYYADSVKGRFTISRDNAKNTVYLQMNSLKPEDTAVYYCARRSSGELGYHIYDYWGQGTQVTVSS | low polyreactivity
14 | QVQHVESGGGLVQAGGSLRLSCAASGSIINNYAMGWYRQPPGKERELVADSTYYADSVKGRFTISRDNAKNTVYLQMNSLKPEVTAVYYCAPDDGGGDPEFYWGQGSQVTVSS | high polyreactivity
15 | QVQHVESGGGLVQAGGSLRLSCAASGSIISSYAMGRYRQAPGKERELVASISRRGGSTYYADSVKGRFTISRDNAKNTVSLQMNSLKPEDTAVYYCYPSCGPYRYYYCGQGTQVTVSS | low polyreactivity
16 | QVQHVESGGGLVQAGGSLRLSCAASGSIIVRYAMGWYRQAPGKERELVASISKRGGSTYYADSVKGRFTISRDNAKNTVYLQMKSLKPDDTAVYYCAAVGYYLVKFDYWGQGTQVTVSS | high polyreactivity

Row | Sequence | polyreactivity (PSR sort gate)
17 | QVQHVESGGGLVQAGGSLRLSCAASGSILDGNTMGWYRQSPGKARELVAALTWDCTSTYYADSVKGRFTISRDNAKNSVYLQMNSLKPEDTAVYYCAATKGYSDPSTLYYAYIHYDYWGQGTQVTVSW | low polyreactivity
18 | QVQHVESGGGLVQAGGSLRLSCAASGSINSNAMGWYRQARGKERELVAAISGSGSTTYYADSVKGRFTISRDNAKNTVYLKMNSLKPEDTAVYYCARGVYGRGRTERYYWGQGTQVIVSS | high polyreactivity
19 | QVQHVESGGGLVQAGGSLRLSCAASGSISKINAMGWYRQAPGKERELVAAINTGDSTYYADSVKGRFTISRDNAKNSVYLQMNSLKPEDSAVYYCAAEGSPTGYDYWGQGTQVTVSS | low polyreactivity
20 | QVQHVESGGGLVQAGGSLRLSCAASGSIYYLNAMGWYRQGPGKEWELVAAINRGGSTSYADSVKGRFTISRDNAKNTVYLQMNSLKEADTAVYYCAADHGGVQYSVRYDYWGQGTQLTVSS | low polyreactivity
21 | QVQHVESGGGLVQAGGSLRLSCAASGSTFANNAMGWYRQAPGKERELVASITTDGSTNYADSVKGRFTISRDNAKNPVYLQMNSLKPEDSAVYYCAADYHTPSSFAPIELYDYCGQGTQVTVSS | low polyreactivity
22 | QVQHVESGGGLVQAGGSLRLSCAASGSTFFKYDMGWYRPAPGTERELVAVITWSGGTTFYADSVKGRFTISRDNANNTVYLQMNSLKPEDTAVSYCAADYYGYRYDYWGQGTQVTVSS | low polyreactivity
23 | QVQHVESGGGLVQAGGSLRLSCAASGSTFGGYTMGWSRQAPGTERELVASIRSGGSTYYADSVKGRFTISRDNAKNTVYLQMNSLKPEVTAVYYCAADGRRDRDYWGQGTQVTVSS | high polyreactivity
24 | QVQHVESGGGLVQAGGSLRLSCAASGSTFKYYAMGWSRQAPGKERELVAAISLSGGRTSYADSVKGRFTISRDNAKNTVYLQMNSLKPVDTAVYYCAAASYFPRFNYWGQGTQVTVSS | high polyreactivity
25 | QVQHVESGGGLVQAGGSLRLSCAASGSTFQYPYTMGWYRQAPRKARELVAVISRTGGSTFYADSVKGRFTISRDNAKNTVYLQMNSLKPEDTAVYYCNARPRYKYPSYDYWGQGTQLTVSS | high polyreactivity
26 | QVQHVESGGGLVQAGGSLRLSCAASGSTFRYYTMGWYRQAPGKERELVAAISGSGGITYYADSVKGRFTISRDNAKNTVYLQMNSLKPEDTAVYYCNAGVFYRDDYWGQGTEVTVSS | high polyreactivity
27 | QVQHVESGGGLVQAGGSLRLSCAASGSTFSRYTMGWYRQAPGKERELVAGISRRGGITYYADSVKGRFTISRDNAKNTVYLQMNSLKPEDTAVYYCARTDVYWYGYPYDYWGQGTQVTVSS | high polyreactivity
28 | QVQHVESGGGLVQAGGSLRLSCAASGSTFWYYDMGGYRQAPGKERELVAAISTRGDSTYYADSVKGRFTISRDNAKNTVYLQMNSLKPEDTAVYYCAKSRQSSGRVRFDYWGQGTQVTVSS | low polyreactivity
29 | QVQHVESGGGLVQAGGSLRLSCAASGSTIEDYAMGWYRQAPGKERELVAAISFSGARTYYADSVKGRFTISRDKAKNTVYLQMNSLKPEDTAVYYCNAVSGIVQRYDYWGQGTQVTVSS | high polyreactivity
30 | QVQHVESGGGLVQAGGSLRLSCAASGSTLGGYAMGWYRQAPGKERELVAAIRWRDGRTYYADSVKGRFTISRDNPKNTVYLQMNSLKPEDTAVYYCAAQYYLARVSFDYWGQGTQVTVSS | high polyreactivity
31 | QVQHVESGGGLVQAGGSLRLSCAASRFIFVTYAMGCYIQAPGKERELVAAITNSGGTTYYADSVKGRFTISRDNAKNTVYLQMNSLKPEDTAVYYCNKPYGAETAHREFDYWGQGTQVTVSS | low polyreactivity
32 | QVQHVESGGGLVQAGGSLRLSCAASVITFYGYTMGWYRQAPGKERELVARIRSRSTSTYYADSVKGRFTISRDNAKNTVDLQMNSLKPEDTAVYYCNADYTNPGSYRKYDYWGQGTQVTVSS | low polyreactivity
